Measurements as given in the supplement of paper PMC9112550, “Optimization of the antimicrobial peptide Bac7 by deep mutational scanning” (BMC Biology, 2022).

tested on: Escherichia coli TOP10; test: shrunken log2 fold change of peptide-encoding DNA abundance (4.5 h post-induction vs induction); higher = less antimicrobial activity (less host growth inhibition); details: time post-induction: 4.5 h; library: site-saturation at positions 5, 18, 19, 20
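Note: peptides expressed intracellularly from a pBAD plasmid library in pooled LB shake-flask culture, induced with 0.3% L-arabinose, DNA abundance read by NGS, three biological replicates, DESeq2 with apeglm shrinkage.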

Sequence | shrunken log2 fold change
RRIRKRPPRLPRPRPRPETTPRP | 1.53
RRIRIRPPRLPRPRPRPMIKPRP | -0.761
RRIRRRPPRLPRPRPRPDKMPRP | -0.122
RRIRWRPPRLPRPRPRPVYDPRP | -0.15
RRIRWRPPRLPRPRPRPDCRPRP | 0.0695
RRIRNRPPRLPRPRPRPMQHPRP | -0.0549
RRIRQRPPRLPRPRPRPFVCPRP | -0.0472
RRIRQRPPRLPRPRPRPVMFPRP | -0.0919
RRIRERPPRLPRPRPRPDGIPRP | -0.00168
RRIRARPPRLPRPRPRPYEYPRP | -0.04
RRIRQRPPRLPRPRPRPVAWPRP | 0.128
RRIRQRPPRLPRPRPRPYDHPRP | -0.534
RRIRQRPPRLPRPRPRPLHPPRP | -0.0917
RRIRRRPPRLPRPRPRPAKYPRP | 0.0401
RRIRTRPPRLPRPRPRPQDYPRP | 0.0537
RRIRFRPPRLPRPRPRPLLGPRP | 0.123
RRIRQRPPRLPRPRPRPSLEPRP | 0.0433
RRIRTRPPRLPRPRPRPWRTPRP | 0.112
RRIRQRPPRLPRPRPRPQAFPRP | -0.0347
RRIRDRPPRLPRPRPRPCAYPRP | 0.297
RRIRHRPPRLPRPRPRPIVWPRP | -0.2
RRIRERPPRLPRPRPRPNPCPRP | -0.226

Sequence | shrunken log2 fold change
RRIRKRPPRLPRPRPRPRMQPRP | 0.622
RRIRMRPPRLPRPRPRPDATPRP | 3.93
RRIRMRPPRLPRPRPRPVWTPRP | 0.386
RRIRSRPPRLPRPRPRPIDNPRP | -0.163
RRIRYRPPRLPRPRPRPLWQPRP | -0.499
RRIRYRPPRLPRPRPRPSATPRP | -0.104
RRIRFRPPRLPRPRPRPRHGPRP | 0.155
RRIRARPPRLPRPRPRPKKYPRP | -0.232
RRIRPRPPRLPRPRPRPKFSPRP | -0.125
RRIRSRPPRLPRPRPRPECVPRP | 0.673
RRIRDRPPRLPRPRPRPFSFPRP | -0.763
RRIRPRPPRLPRPRPRPEIHPRP | -0.536
RRIRCRPPRLPRPRPRPRGIPRP | 0.094
RRIRDRPPRLPRPRPRPSSQPRP | -0.0971
RRIRGRPPRLPRPRPRPWPPPRP | 0.663
RRIRRRPPRLPRPRPRPAHPPRP | 0.769
RRIRWRPPRLPRPRPRPLKEPRP | -0.0713
RRIRERPPRLPRPRPRPWCEPRP | -0.349
RRIRERPPRLPRPRPRPVLRPRP | -0.156
RRIRWRPPRLPRPRPRPLFLPRP | -0.318
RRIRMRPPRLPRPRPRPQINPRP | -0.0723
RRIRVRPPRLPRPRPRPYDSPRP | -0.126

Sequence | shrunken log2 fold change
RRIRPRPPRLPRPRPRPGMQPRP | 0.515
RRIRSRPPRLPRPRPRPRDNPRP | -0.0866
RRIRKRPPRLPRPRPRPMMTPRP | 0.452
RRIRIRPPRLPRPRPRPVPPPRP | 0.144
RRIRWRPPRLPRPRPRPCGIPRP | 0.0389
RRIRDRPPRLPRPRPRPYFVPRP | -0.362
RRIRERPPRLPRPRPRPGVTPRP | 0.00546
RRIRLRPPRLPRPRPRPIPYPRP | -0.401
RRIRPRPPRLPRPRPRPHFHPRP | -0.191
RRIRIRPPRLPRPRPRPQFIPRP | -0.782
RRIRSRPPRLPRPRPRPTTRPRP | 0.222
RRIRVRPPRLPRPRPRPCEAPRP | 0.0719
RRIRPRPPRLPRPRPRPNVFPRP | -0.21
RRIRDRPPRLPRPRPRPSRPPRP | 0.452
RRIRLRPPRLPRPRPRPDMCPRP | -0.0164
RRIRGRPPRLPRPRPRPVTCPRP | 0.146
RRIRGRPPRLPRPRPRPCIKPRP | 0.268
RRIRLRPPRLPRPRPRPVGQPRP | 0.0826
RRIRPRPPRLPRPRPRPCDAPRP | 0.375
RRIRLRPPRLPRPRPRPWPCPRP | 0.209
RRIRSRPPRLPRPRPRPFCRPRP | -0.0968
RRIRYRPPRLPRPRPRPIHDPRP | -1.22

Sequence | shrunken log2 fold change
RRIRWRPPRLPRPRPRPLDAPRP | 0.354
RRIRFRPPRLPRPRPRPESVPRP | 0.257
RRIRNRPPRLPRPRPRPPQFPRP | 0.334
RRIRVRPPRLPRPRPRPLMSPRP | 0.0187
RRIRIRPPRLPRPRPRPSTRPRP | -0.54
RRIRYRPPRLPRPRPRPKHPPRP | -0.155
RRIRMRPPRLPRPRPRPHPQPRP | 0.427
RRIRWRPPRLPRPRPRPSWWPRP | 0.2
RRIRKRPPRLPRPRPRPAWCPRP | 0.0965
RRIRNRPPRLPRPRPRPAWIPRP | 0.275
RRIRVRPPRLPRPRPRPTEPPRP | 0.128
RRIRARPPRLPRPRPRPNNFPRP | -0.236
RRIRMRPPRLPRPRPRPATMPRP | 0.256
RRIRFRPPRLPRPRPRPAEQPRP | 1.16
RRIRIRPPRLPRPRPRPPHCPRP | -0.391
RRIRVRPPRLPRPRPRPFWSPRP | 0.0887
RRIRCRPPRLPRPRPRPAELPRP | 0.0853
RRIRKRPPRLPRPRPRPCLLPRP | -0.037
RRIRLRPPRLPRPRPRPVPLPRP | -0.174
RRIRRRPPRLPRPRPRPTIGPRP | -0.229
RRIRARPPRLPRPRPRPRWRPRP | 0.934
RRIRCRPPRLPRPRPRPGLQPRP | 0.109

Sequence | shrunken log2 fold change
RRIRCRPPRLPRPRPRPAIHPRP | -0.248
RRIRTRPPRLPRPRPRPMAGPRP | -0.109
RRIRSRPPRLPRPRPRPHPLPRP | -0.00402
RRIRGRPPRLPRPRPRPLGIPRP | 0.178
RRIRFRPPRLPRPRPRPPFNPRP | -0.245
RRIRARPPRLPRPRPRPWHLPRP | -0.0312
RRIRSRPPRLPRPRPRPFGIPRP | -0.172
RRIRYRPPRLPRPRPRPMDRPRP | -0.0498
RRIRYRPPRLPRPRPRPMSFPRP | -0.00962
RRIRQRPPRLPRPRPRPNDHPRP | -0.884
RRIRNRPPRLPRPRPRPFSPPRP | -0.148
RRIRQRPPRLPRPRPRPIKNPRP | -0.186
RRIRMRPPRLPRPRPRPHSYPRP | -0.0152
RRIRVRPPRLPRPRPRPCFTPRP | -0.0879
RRIRVRPPRLPRPRPRPIEVPRP | -0.141
RRIRQRPPRLPRPRPRPVHPPRP | 0.211
RRIRTRPPRLPRPRPRPPYTPRP | -0.397
RRIRPRPPRLPRPRPRPNFNPRP | -0.273
RRIRGRPPRLPRPRPRPDRVPRP | 0.311
RRIRQRPPRLPRPRPRPGHKPRP | -0.00306
RRIRMRPPRLPRPRPRPVDMPRP | 0.185
